According to patent CN112745392A (SHANGHAI NOVAMAB BIOPHARMACEUTICALS CO LTD, dated 2021):
One block for each binder: values may come before it.

Experiments:
[1] = biological target: T1, hCD47(ECD)-Fc (human, UniProt Q08722 19-139); test: BLI (Fortebio Red96), Protein A probes, 30℃
T1 construct: extracellular domain; not shown: Fc part not described

[2] = biological target: T2, 人CD47 (Jurkat细胞, 高表达人CD47) (human, UniProt Q08722 19-323); test: flow cytometry competition against hSIRPa(ECD)-Fc-Biotin on Jurkat cells
T2 construct: whole, on cells
T2 sequence (Q08722 19-323): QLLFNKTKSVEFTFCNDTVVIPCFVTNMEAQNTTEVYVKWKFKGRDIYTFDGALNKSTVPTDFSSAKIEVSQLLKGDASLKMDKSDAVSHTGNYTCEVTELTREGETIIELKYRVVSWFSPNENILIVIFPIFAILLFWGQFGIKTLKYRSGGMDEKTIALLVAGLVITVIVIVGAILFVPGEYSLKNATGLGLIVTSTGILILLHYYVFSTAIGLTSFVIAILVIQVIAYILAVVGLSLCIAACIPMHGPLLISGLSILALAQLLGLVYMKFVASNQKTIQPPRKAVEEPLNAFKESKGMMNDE

[3] = biological target: T3, hPD-L1(ECD)-Fc (human, UniProt Q9NZQ7 19-238); test: BLI (Fortebio Red96), Protein A probes, 30℃
T3 construct: extracellular domain; also called 重组人PD-L1; not shown: Fc part not described
T3 sequence (Q9NZQ7 19-238): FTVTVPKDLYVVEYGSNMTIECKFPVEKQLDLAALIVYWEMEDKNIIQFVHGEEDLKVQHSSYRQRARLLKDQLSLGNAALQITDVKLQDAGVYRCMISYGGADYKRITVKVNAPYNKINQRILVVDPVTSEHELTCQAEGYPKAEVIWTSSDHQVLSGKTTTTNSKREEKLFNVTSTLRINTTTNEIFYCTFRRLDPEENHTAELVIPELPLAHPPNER

T1 sequence (Q08722 19-139): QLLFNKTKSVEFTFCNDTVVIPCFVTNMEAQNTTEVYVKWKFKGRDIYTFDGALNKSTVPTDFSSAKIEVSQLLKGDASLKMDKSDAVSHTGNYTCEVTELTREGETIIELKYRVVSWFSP

Kd [1]: 6.13 nM | IC50 [2]: 4.49 nM
B1: CD47单域抗体Fc融合蛋白(Nb-Fc) (Fc fusion)
chain: QVQLQESGGGLVQPGGSLRLSCAASGYAYTSDCMGWFRQTPGKGLEGVALIYTPGASTNYADSVKGRFTISQDNSKSTVYLQMNSLRAEDTAMYYCAARRGACSLRLPFFYWGQGTLVTVSS
notes: Control; also called CD47 Nb-Fc; 原始CD47单域抗体; not shown: Fc part (and any hinge or linker) of the control fusion is not described

Kd [3]: 26.5 nM
B2: PD-L1单域抗体Fc融合蛋白(Nb-Fc) (Fc fusion)
chain: QVQLQESGGGLVQPGGSLRLSCTASGYNLSPSCMGWFRQAPGKGLEGVAFTDADGSTRYADSVKARFTISRDNSKNTLYLQMNSLRAEDTAVYYCAADFFSYCSVVFRASARDKYRGQGTLVTVSS
notes: Control; also called PD-L1 Nb-Fc; 原始PD-L1单域抗体; not shown: Fc part (and any hinge or linker) of the control fusion is not described
